From article PMC8699464, “Cyclic Tetra-Adenylate (cA4) Recognition by Csa3; Implications for an Integrated Class 1 CRISPR-Cas Immune Response in Saccharolobus solfataricus” (Biomolecules, 2021)

Columns and labels:
[1] = target: T1, Csa3a (SsCsa3a) (Saccharolobus solfataricus P2, UniProt Q97Y88 1-237); test: fluorescence polarization; conditions: 37 C 30 min, 18 nM DNA (5.2 ng/uL), +/-10 uM cA4, 2% agarose, FP: 20 mM SPG, 50 mM NaCl, pH 6.5, 50 C (also 21 C), 30 nM DNA, ITC: 10 mM Tris
T1 sequence: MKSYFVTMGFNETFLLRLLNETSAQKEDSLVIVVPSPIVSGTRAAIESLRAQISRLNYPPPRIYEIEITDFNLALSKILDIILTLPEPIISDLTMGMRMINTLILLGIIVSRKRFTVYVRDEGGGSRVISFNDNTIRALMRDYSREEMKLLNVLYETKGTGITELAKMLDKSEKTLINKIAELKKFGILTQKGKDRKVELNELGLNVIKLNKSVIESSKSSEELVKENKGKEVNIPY

[2] = target: T2, Csa3a (SsCsa3a, Sso1445) (Saccharolobus solfataricus, UniProt Q97Y88); test: ITC at […] °C; co-crystal structure at […] Å; assay type: binding
T2 construct: gene csa3; 6×His-tagged Sso1445 (pEXP14-6×His-Sso1445), homodimer; crystal model lacks residues 213–237 of both chains and 160–162, 174–176, 192–195 of chain A
T2 sequence (Q97Y88 1-237): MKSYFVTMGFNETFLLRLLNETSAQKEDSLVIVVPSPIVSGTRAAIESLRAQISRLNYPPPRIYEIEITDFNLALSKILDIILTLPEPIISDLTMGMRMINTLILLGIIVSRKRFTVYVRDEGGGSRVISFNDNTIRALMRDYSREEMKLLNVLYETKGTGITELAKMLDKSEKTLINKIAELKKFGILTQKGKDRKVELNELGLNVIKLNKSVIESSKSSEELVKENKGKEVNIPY

[3] = target: T1, Csa3a (SsCsa3a); test: ITC; 25 C; 250-500 uM cA4; n about 0.6 per dimer; endothermic; EMSA: TAE, 37 C 30 min, 18 nM DNA (5.2 ng/uL), +/-10 uM cA4, 2% agarose; FP: 20 mM SPG, 50 mM NaCl, pH 6.5, 50 C (also 21 C), 30 nM DNA; ITC: 10 mM Tris, 50 mM; conditions: protein: recombinant; tags: 6xHis (pEXP14-6xHis-Sso1445); chain copies: 2; cyclic, single copy per Csa3a dimer
[4] = target: the molecule itself; test: crystal structure; Csa3a co-crystallised with cA4 by hanging drop vapor diffusion at 22 °C; 2.45 Å; space group P212121; one Csa3a dimer in the asymmetric unit

20 bp CAPPa, I-A (2) cas4a promoter showed a Kd ([1]; 10 uM cA4, 50 C, EMSA: TAE) of 2700 nM and a Kd ([1]; no cA4, 50 C, non-cooperative, EMSA: TAE) of 3200 nM.

`Nc1ncnc2c1ncn2[C@@H]1O[C@@H]2COP(=O)(O)O[C@H]3[C@@H](O)[C@H](n4cnc5c(N)ncnc54)O[C@@H]3COP(=O)(O)O[C@H]3[C@@H](O)[C@H](n4cnc5c(N)ncnc54)O[C@@H]3COP(=O)(O)O[C@H]3[C@@H](O)[C@H](n4cnc5c(N)ncnc54)O[C@@H]3COP(=O)(O)O[C@H]2[C@H]1O` [cA4, cyclic tetra-adenylate] was tested, and the Kd [2] was 1000 to 1500 nM.

Work on 75 bp I-A (2) cas4a CAPPa fragment yielded a Kd ([1]; 10 uM cA4, 50 C, cooperative, EMSA: TAE) of 210 nM and a Kd ([1]; no cA4, 50 C, cooperative, Hill about 2, EMSA: TAE) of 270 nM.

B1: cA4 (cyclic tetra-adenylate) (ssRNA)
RNA: AAAA
modifications: cyclic, 3'-5' linked?
With B1 the Kd [3] was 1220 nM.

B2: Saccharolobus solfataricus Csa3a (Sso1445) (natural protein, UniProt Q97Y88 1-237, looked up)
chain: MKSYFVTMGFNETFLLRLLNETSAQKEDSLVIVVPSPIVSGTRAAIESLRAQISRLNYPPPRIYEIEITDFNLALSKILDIILTLPEPIISDLTMGMRMINTLILLGIIVSRKRFTVYVRDEGGGSRVISFNDNTIRALMRDYSREEMKLLNVLYETKGTGITELAKMLDKSEKTLINKIAELKKFGILTQKGKDRKVELNELGLNVIKLNKSVIESSKSSEELVKENKGKEVNIPY
notes: Csa3a (Sso1445) of Saccharolobus (Sulfolobus) solfataricus P2, with an N-terminal CARF domain and a C-terminal winged helix-turn-helix domain; also called SsCsa3a; SsCsa3; source: E. coli BL21 (DE3)-pRIL, purified (heat step at 60 °C, Ni-NTA, Superdex 75)
B2: binds [4].
